In PMC6849348, “Theranostic Application of a Novel G-Quadruplex-Forming DNA Aptamer Targeting Malate Synthase of Mycobacterium tuberculosis” (Molecular Therapy. Nucleic Acids, 2019):

Biological target: malate synthase (MS, GlcB) (Mycobacterium tuberculosis) (UniProt P9WK17)
Assay: SPR

Chain of malate synthase (MS, GlcB) (Mycobacterium tuberculosis) (P9WK17 whole entry): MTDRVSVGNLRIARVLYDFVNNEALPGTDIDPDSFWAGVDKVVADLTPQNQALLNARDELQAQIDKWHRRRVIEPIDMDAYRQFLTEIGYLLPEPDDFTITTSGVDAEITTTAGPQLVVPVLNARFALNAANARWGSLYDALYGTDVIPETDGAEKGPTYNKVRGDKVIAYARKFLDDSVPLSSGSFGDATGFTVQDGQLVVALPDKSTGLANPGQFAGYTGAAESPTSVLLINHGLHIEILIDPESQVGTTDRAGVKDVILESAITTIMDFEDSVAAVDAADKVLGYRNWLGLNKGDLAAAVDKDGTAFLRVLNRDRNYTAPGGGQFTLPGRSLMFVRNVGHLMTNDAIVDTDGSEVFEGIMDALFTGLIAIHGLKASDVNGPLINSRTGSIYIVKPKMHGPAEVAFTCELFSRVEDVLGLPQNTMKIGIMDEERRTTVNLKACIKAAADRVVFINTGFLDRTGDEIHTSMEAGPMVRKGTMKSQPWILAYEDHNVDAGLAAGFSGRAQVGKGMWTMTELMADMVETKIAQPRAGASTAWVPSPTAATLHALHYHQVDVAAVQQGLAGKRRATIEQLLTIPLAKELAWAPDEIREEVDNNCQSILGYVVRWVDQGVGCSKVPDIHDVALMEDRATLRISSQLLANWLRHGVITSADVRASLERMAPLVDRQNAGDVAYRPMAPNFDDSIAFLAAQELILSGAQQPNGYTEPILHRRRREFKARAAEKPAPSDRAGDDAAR

Row | Sequence | Kd
1 | GCAGAGAGAGAGAAAGTGAGAAGGGCGGGGGGGAGAGGGTGGGG [MS5] | 2700 nM
2 | GGACCAGGTGAGTGGATGCGGGTGCGGGTGGGGGTGAGGGGGGG [MS4] | 9.9 nM
3 | GGGTTGTAAGAGGGAGCTGGGAGGGGTCGGGGGGGGGGGTGGC [MS20] | 910 nM
4 | GGTGGGATGGGGGGGGGAGGGTAGGGTGTGCAAGTAGAGGGTC [MS6] | 0.28 nM
